Patent US7329737 (DYAX, dated 2008)

B1: M0131-B05 (Fab, V domains shown)
VH: EVQLLESGGGLVQPGGSLRLSCAASGFTFSHYVMSWVRQAPGKGLEWVSYIYPSGGKTHYADSVKGRFTISRDNSKNTLYLQMNSLRAEDTAVYYCARVGVWYGMDVWGQGTTVTVSS
VL: AQYELTQPASVSGSPGQSITISCTGTSSDIGAYNYVSWYQQHPGKAPKLMIYDVSNRPSGVSNRFSGSKSGNTASLTISGLQAEDEADYYCSSYRSSSLMFGGGTKLTVLG
B2: M0136-E12 (Fab, V domains shown)
VH: EVQLLESGGGLVQPGGSLRLSCAASGFTFSNYSMQWVRQAPGKGLEWVSSIGPSGGRTWYADSVKGRFTISRDNSKNTLYLQMNSLRAEDTAVYYCARVGVWYGMDVWGQGTTVTVSS
VL: DIQMTQSPSSLSASVGDRVTITCRASHVINIDLGWYQQKPGKAPKLLIYGASHLQRGVPSRFSGSGSGTVFTLTISGLQPEDFATYYCLQDSFYPRTFGQGTRLEIKR
B3: M0131-F09 (Fab, V domains shown)
VH: EVQLLESGGGLVQPGGSLRLSCAASGFTFSHYVMQWVRQAPGKGLEWVSGIGPSGGSTTYADSVKGRFTISRDNSKNTLYLQMNSLRAEDTAVYYCARVGVWYGMDVWGQGTTVTVSS
VL: DIQMTQSPATLSLSPGERATLSCRASQSVSSYLAWYQQKPGQAPRLLIYDASNRATGIPARFSGSGSGTDFTLTISSLEPEDFAVYYCQQRSNWLWTFGQGTKVEIKR
B4: M0114-G09 (Fab, V domains shown)
VH: EVQLLESGGGLVQPGGSLRLSCAASGFTFSHYAMDWVRQAPGKGLEWVSVIYSSGGKTTYADSVKGRFTISRDNSKNTLYLQMNSLRAEDTAMYYCARVGVWYGMDVWGQGTTVTVSS
VL: AQSALTQPASVSGSPGQSITISCTGTSSDVGSYKLVSWYQQHPGKAPKLMIYEGSKRPSGVSNRFSGSKSGNTASLTISGLQAEDEADYYCCSYAGSSTWVFGGGTKLTVLG
B5: M0113-D05 (Fab, V domains shown)
VH: EVQLLESGGGLVQPGGSLRLSCAASGFTFSHYIMMWVRQAPGKGLEWVSSIYPSGGSTIYADSVKGRFTISRDNSKNTLYLQMNSLRAEDTAVYYCASATEGYYYGMDVWGQGTTVTVSS
VL: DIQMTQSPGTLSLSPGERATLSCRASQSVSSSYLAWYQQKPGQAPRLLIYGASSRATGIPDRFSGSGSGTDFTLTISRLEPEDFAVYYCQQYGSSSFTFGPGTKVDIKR
B6: M0102-D07 (Fab, V domains shown)
VH: EVQLLESGGGLVQPGGSLRLSCAASGFTFSRYWMWWVRQAPGKGLEWVSSIGPSGGATRYADSVKGRFTISRDNSKNTLYLQMNSLRAEDTAVYYCTTGSAGNWGQGTLVTVSS
VL: DIQMTQSPGTLSLSPGERATLSCGASQSVSTTYIAWYQHKPGQPPRLLIYGASNRATGIPDRFRGSGSGTDFTLTISRLEPEDFAVYYCQQYGSSPYTFGQGTKLEIKR
B7: M0108-D11 (Fab, V domains shown)
VH: EVQLLESGGGLVQPGGSLRLSCAASGFTFSWYVMTWVRQAPGKGLEWVSVIYPSGGATKYADSVKGRFTISRDNSKNTLYLQMNSLRAEDTAVYYCARRGAGGMDVWGQGTTVTVSS
VL: AQSVLTQPASVSGSPGQSITISCTGTNTDVGGYNLVSWYQQHPGKAPKLIIYEVSNRPSGVSNRFSGSKSGNTASLTISGLQAEDEVDYYCGSYTSSSTHVFGSGTKVTVLG
B8: M0103-H07 (Fab, V domains shown)
VH: EVQLLESGGGLVQPGGSLRLSCAASGFTFSHYGMYWVRQAPGKGLEWVSSIYPSGGWTNYADSVKGRFTISRDNSKNTLYLQMNSLRAEDTAVYYCARRGSWGAFDIWGQGTMVTVSS
VL: DIQMTQSPSSLSASVGDRVAITCRASQSIDTYLNWYQQKPGKAPKLLIYAASKLEDGVPSRFSGSGTGTDFTLTIRSLQPEDFATYYCQPYNTYPITFGQGTRLEIKR
B9: M0134-B03 (Fab, V domains shown)
VH: EVQLLESGGGLVQPGGSLRLSCAASGFTFSHYSMFWVRQAPGKGLEWVSSIYPSGGQTDYADSVKGRFTISRDNSKNTLYLQMNSLRAEDTAVYYCARRGLLWSFDSWGQGTLVTVSS
VL: AQSALTQPPSASGSPGQSVTISCTGTSSDVGAYNYVSWYQQHPGKAPKLIIYEVNKRPSGVPDRFSASKSGNTASLTVSGLQAEDEADYYCNSYAGSNSLIFGGGTKLTVLG
B10: M0131-D01 (Fab, V domains shown)
VH: EVQLLESGGGLVQPGGSLRLSCAASGFTFSHYNMNWVRQAPGKGLEWVSVIYPSGGQTHYADSVKGRFTISRDNSKNTLYLQMNSLRAEDTAVYYCARRGIWHSFDIWGQGTMVTVSS
VL: DIQMTQSPGTLSLSPGERASLSCRASQSVSSNYLSWYQQKPGQAPRLLIYGTSNRASGIPVRFSGSGSGTDFTLTISRLEPEDFAVYYCQQYGGAPLFIFGPGTRVDIKR
B11: M0106-D06 (Fab, V domains shown)
VH: EVQLLESGGGLVQPGGSLRLSCAASGFTFSYYLMGWVRQAPGKGLEWVSSIGPSGGTTKYADSVKGRFTISRDNSKNTLYLQMNSLRAEDTAVYYCARRGLGAAFDYWGQGTLVTVSS
VL: DIQMTQSPSSVSASVGDRVTITCRASQGISSWLAWYQQKPGKAPKLLIYAASSLQSGVPSRFSGSGSGTDFTLTISSLQPEDFATYYCQQANSFPYTFGQGTKLEIKR
B12: M0132-C08 (Fab, V domains shown)
VH: EVQLLESGGGLVQPGGSLRLSCAASGFTFSLYFMTWVRQAPGKGLEWVSSISSSGGSTKYADSVKGRFTISRDNSKNTLYLQMNSLRAEDTAVYYCARGGQWLAFDYWGQGTLVTVSS
VL: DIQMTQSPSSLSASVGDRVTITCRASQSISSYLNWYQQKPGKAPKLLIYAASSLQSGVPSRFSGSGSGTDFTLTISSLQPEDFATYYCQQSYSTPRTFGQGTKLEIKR
B13: M0136-D07 (Fab, V domains shown)
VH: EVQLLESGGGLVQPGGSLRLSCAASGFTFSPYKMGWVRQAPGKGLEWVSSIYPSGGVTTYADSVKGRFTISRDNSKNTLYLQMNSLRAEDTAVYYCTKNINLRYDILTGYFDIWGQGTTVTVSS
VL: DIQMTQSPSSVSASVGDRVTITCRASQDIASWLAWYQQKPEKVPKLLIYAASSLQSGVPSRFSGSGSGTDFTLTINSLQPEDFATYYCQQANSFPFTFGPGTKVDFKR
B14: M0138-A03 (Fab, V domains shown)
VH: EVQLLESGGGLVQPGGSLRLSCAASGFTFSFYLMFWVRQAPGKGLEWVSGIYPSGGQTVYADSVKGRFTISRDNSKNTLYLQMNSLRAEDTAVYYCARAIGAGSSFWGQGTLVTVSS
VL: DIQMTQSPSSVSASVGDRVTITCRASQGISSWLAWYQQKPGKAPKLLIYAASSLQSGVPSRFSGSGSGTDFTLTISSLQPEDFATYYCQQANSFPHTFGQGTKLEIKR
B15: M0138-E02 (Fab, V domains shown)
VH: EVQLLESGGGLVQPGGSLRLSCAASGFTFSHYMMHWVRQAPGKGLEWVSGIGPSGGKTPYADSVKGRFTISRDNSKNTLYLQMNSLRAEDTAVYYCARVGVWYGMDVWGQGTTVTVSS
VL: DIQMTQSPSSVSASVGDRVTITCRASQGISSWLVWYQQKPGKAPKLLIYAASSLQSGVPSRFSGSGSGTDFTLTISSLQPEDFATYYCQQAKTFPLTFGGGTKVEIKR
B16: M0110-D06 (Fab, V domains shown)
VH: EVQLLESGGGLVQPGGSLRLSCAASGFTFSWYRMAWVRQAPGKGLEWVSYIGPSGGSTSYADSVKGRFTISRDNSKNTLYLQMNSLRAEDTATYYCARVGTFYGMDVWGQGTTVTVSS
VL: DIQMTQSPSTLSASLGDRVIITCRASQGIRSWLAWYQQKPGKAPKLLIYAASSLQSGVPSRFSGSGSGTDFTLTISSLQPEDFATYYCQQSYSTPWTFGQGTKVEIKR
B17: M0116-A08 (Fab, V domains shown)
VH: EVQLLESGGGLVQPGGSLRLSCAASGFTFSYYMMGWVRQAPGKGLEWVSSIYTSGGYTKYADSVKGRFTISRDNSKNTLYLQMNSLRAEDTAVYYCARASIYYGMDVWGQGTTVTVSS
VL: DIQMTQSPGTLSLSPGERATLSCRASQSVSNSYLAWYQQRPGQAPRLLIYGASSRATGIPDRFSGSGSGTEFTLTISRLEPEDFAVYYCQQFGSSTGYTFGQGTKLELKR
B18: M0124-C04 (Fab, V domains shown)
VH: EVQLLESGGGLVQPGGSLRLSCAASGFTFSWYLMGWVRQAPGKGLEWVSVIGPSGGLTKYADSVKGRFTISRDNSKNTLYLQMNSLRAEDTAVYYCARFRGYYGMDVWGQGTTVTVSS
VL: not shown
B19: M0135-H01 (Fab, V domains shown)
VH: EVQLLESGGGLVQPGGSLRLSCAASGFTFSAYLMAWVRQAPGKGLEWVSSIRPSGGETRYADSVKGRFTISRDNSKNTLYLQMNSLRAEDTAVYYCTRDQKGYPDSSSFRRYYYYYGMDVWGQGTTVTVSS
VL: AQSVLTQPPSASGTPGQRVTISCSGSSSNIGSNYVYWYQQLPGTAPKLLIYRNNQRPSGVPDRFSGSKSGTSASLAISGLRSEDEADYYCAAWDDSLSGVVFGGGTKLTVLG
B20: M0098-G05 (Fab, V domains shown)
VH: EVQLLESGGGLVQPGGSLRLSCAASGFTFSKYKMGWVRQAPGKGLEWVSYIRPSGGMTFYADSVKGRFTISRDNSKNTLYLQMNSLRAEDTAVYYCTREHYQASYSSSAWFRMVPAGAFDIWGQGTMVTVSS
VL: DIQMTQSPSSLSASVGDRVTITCRASQTISRYLNWYQQKPGTAPKLLIYAASSLQSGVPSRFSGDGSGTDFTLTISSLQPEDFGIYFCQQSYSAPRTFGQGTKVEIKR
B21: M0139-C02 (Fab, V domains shown)
VH: EVQLLESGGGLVQPGGSLRLSCAASGFTFSYYKMHWVRQAPGKGLEWVSVIYPSGGKTTYADSVKGRFTISRDNSKNTLYLQMNSLRAEDTAVYYCTREHYQASYSSSAWFRMVPAGAFDIWGQGTMVTVSS
VL: DIQMTQSPSSLSASVGDRVTITCRASQGIRRAWYQQKPGKPPKLLINDASSLESGVPSRFSGSGSGTDFTLTISSLQPEDFATYYCQQSYSTPPWTFGQGTKVEIKR

target: T1, hK1 (human tissue kallikrein 1), recombinant (human, UniProt P06870 25-262); assay: SPR
T1 construct: Expressed in P. pastoris from KLK1 cDNA and purified; enzymatically active; also called KLK1; Recombinant (Pichia) Kallikrein

Question: Which results are given for B1?
Answer: Kd: 0.46 nM; koff: 0.000117 s⁻¹; kon: 255000 M⁻¹ s⁻¹

Question: For B2, which Kd is on record?
Answer: The Kd was 2.23 nM.

Question: What about the koff of the same binder?
Answer: Its koff is 0.00107 s⁻¹.

Question: And the kon?
Answer: The kon was 481000 M⁻¹ s⁻¹.

Question: What does the source list for B3?
Answer: Kd: 2.36 nM; koff: 0.000734 s⁻¹; kon: 311000 M⁻¹ s⁻¹

Question: With B4 as the binder, how does the Kd read?
Answer: The Kd was 1.46 nM.

Question: What about the koff of the same binder?
Answer: Its koff is 0.00062 s⁻¹.

Question: And the kon?
Answer: Its kon is 424000 M⁻¹ s⁻¹.

Question: What does the source list for B5?
Answer: Kd: 152 nM; koff: 0.00214 s⁻¹; kon: 14100 M⁻¹ s⁻¹

Question: With B6 as the binder, how does the Kd read?
Answer: Its Kd is 78.6 nM.

Question: And the koff?
Answer: Its koff is 0.0122 s⁻¹.

Question: What about the kon of the same binder?
Answer: Its kon is 155000 M⁻¹ s⁻¹.

Question: What does the source list for B7?
Answer: Kd: 2.09 nM; koff: 0.00069 s⁻¹; kon: 330000 M⁻¹ s⁻¹

Question: What does the source list for B8?
Answer: Kd: 85.7 nM; koff: 0.0086 s⁻¹; kon: 100000 M⁻¹ s⁻¹

Question: How did the Kd turn out when B9 was run?
Answer: The Kd was 2.41 nM.

Question: What about the koff of the same binder?
Answer: Its koff is 0.00096 s⁻¹.

Question: What about the kon of the same binder?
Answer: Its kon is 399000 M⁻¹ s⁻¹.

Question: Which results are given for B10?
Answer: Kd: 1.04 nM; koff: 0.000325 s⁻¹; kon: 311000 M⁻¹ s⁻¹

Question: For B11, which Kd is on record?
Answer: Its Kd is 123 nM.

Question: And the koff?
Answer: Its koff is 0.019 s⁻¹.

Question: And the kon?
Answer: The kon was 154000 M⁻¹ s⁻¹.

Question: For B12, which Kd is on record?
Answer: The Kd was 1.3 nM.

Question: What about the koff of the same binder?
Answer: The koff was 0.000444 s⁻¹.

Question: What about the kon of the same binder?
Answer: Its kon is 342000 M⁻¹ s⁻¹.

Question: With B13 as the binder, how does the Kd read?
Answer: Its Kd is 2.26 nM.

Question: What about the koff of the same binder?
Answer: The koff was 0.000397 s⁻¹.

Question: And the kon?
Answer: The kon was 176000 M⁻¹ s⁻¹.

Question: Which results are given for B14?
Answer: Kd: 1.71 nM; koff: 0.000325 s⁻¹; kon: 190000 M⁻¹ s⁻¹

Question: With B15 as the binder, how does the Kd read?
Answer: Its Kd is 2.26 nM.

Question: And the koff?
Answer: The koff was 0.00138 s⁻¹.

Question: What about the kon of the same binder?
Answer: Its kon is 614000 M⁻¹ s⁻¹.

Question: How did the Kd turn out when B16 was run?
Answer: The Kd was 232 nM.

Question: What about the koff of the same binder?
Answer: The koff was 0.0175 s⁻¹.

Question: And the kon?
Answer: Its kon is 75600 M⁻¹ s⁻¹.

Question: Which results are given for B17?
Answer: Kd: 88.3 nM; koff: 0.00994 s⁻¹; kon: 113000 M⁻¹ s⁻¹

Question: For B18, which Kd is on record?
Answer: Its Kd is 372 nM.

Question: And the koff?
Answer: Its koff is 0.286 s⁻¹.

Question: And the kon?
Answer: Its kon is 768000 M⁻¹ s⁻¹.

Question: For B19, which Kd is on record?
Answer: The Kd was 2.03 nM.

Question: What about the koff of the same binder?
Answer: The koff was 0.000396 s⁻¹.

Question: And the kon?
Answer: Its kon is 195000 M⁻¹ s⁻¹.

target: T1, hK1 (human tissue kallikrein 1), …; assay: cell-based or functional assay

Question: With B20 as the binder, how does the “IC50 (nM), inhibition of hK1 hydrolysis of Pro-Phe-Arg-AMC” value read?
Answer: The value was 4 nM.

Question: How did the “IC50 (nM), inhibition of hK1 hydrolysis of Pro-Phe-Arg-AMC” value turn out when B21 was run?
Answer: The value was 1 nM.
